Results published in PMC7532188.

Biological target: His-tagged TASOR(354–633), tandem SPOC-DomI construct (human) (UniProt Q9UK61)
Assay: SEC-MALS; complex co-expressed in E. coli and purified by Ni-affinity; Superdex 200 (10/300), 293 K, 20 mM HEPES pH 7.5, 0.5 M NaCl, 0.5 mM TCEP

Chain of UniProt Q9UK61 (Q9UK61 354-633): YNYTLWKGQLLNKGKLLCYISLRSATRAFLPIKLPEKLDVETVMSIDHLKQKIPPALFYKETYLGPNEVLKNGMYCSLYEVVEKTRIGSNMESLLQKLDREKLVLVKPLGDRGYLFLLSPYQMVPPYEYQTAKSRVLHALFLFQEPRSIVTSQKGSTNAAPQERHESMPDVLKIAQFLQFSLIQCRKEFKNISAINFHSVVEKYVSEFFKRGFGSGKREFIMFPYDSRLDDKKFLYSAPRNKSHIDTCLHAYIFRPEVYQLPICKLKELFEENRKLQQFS

stoichiometry N: 1
Substance: MPP8 C-terminus (residues 528–860) (from UniProt Q99549-1 528-860) (domain or fragment)
